Assay results from patent US20210155689A1 (SHANGHAI PHARMAEXPLORER, published 2021).
Residue numbers refer to the chain shown, from its start.

T1: human LAG-3 on cells (HEK293-hLAG-3 stable cell line) (human, UniProt P18627 23-525)
T1 sequence: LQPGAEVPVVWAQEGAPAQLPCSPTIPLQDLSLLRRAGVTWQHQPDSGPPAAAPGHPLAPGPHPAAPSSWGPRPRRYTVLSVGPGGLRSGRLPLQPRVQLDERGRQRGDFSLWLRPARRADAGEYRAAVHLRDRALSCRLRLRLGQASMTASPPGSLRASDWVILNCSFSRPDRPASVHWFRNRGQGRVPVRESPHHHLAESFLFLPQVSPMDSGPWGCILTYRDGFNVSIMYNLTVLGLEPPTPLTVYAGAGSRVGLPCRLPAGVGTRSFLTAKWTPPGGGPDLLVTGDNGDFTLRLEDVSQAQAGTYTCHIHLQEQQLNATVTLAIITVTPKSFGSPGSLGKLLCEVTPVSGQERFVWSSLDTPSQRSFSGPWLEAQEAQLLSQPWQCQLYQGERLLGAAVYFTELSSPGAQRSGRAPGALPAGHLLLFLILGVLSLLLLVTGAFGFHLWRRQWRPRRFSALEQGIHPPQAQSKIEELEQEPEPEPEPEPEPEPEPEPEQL

T2: human LAG-3 ECD (antigen protein of the affinity test) (human, UniProt P18627 23-450)
T2 sequence: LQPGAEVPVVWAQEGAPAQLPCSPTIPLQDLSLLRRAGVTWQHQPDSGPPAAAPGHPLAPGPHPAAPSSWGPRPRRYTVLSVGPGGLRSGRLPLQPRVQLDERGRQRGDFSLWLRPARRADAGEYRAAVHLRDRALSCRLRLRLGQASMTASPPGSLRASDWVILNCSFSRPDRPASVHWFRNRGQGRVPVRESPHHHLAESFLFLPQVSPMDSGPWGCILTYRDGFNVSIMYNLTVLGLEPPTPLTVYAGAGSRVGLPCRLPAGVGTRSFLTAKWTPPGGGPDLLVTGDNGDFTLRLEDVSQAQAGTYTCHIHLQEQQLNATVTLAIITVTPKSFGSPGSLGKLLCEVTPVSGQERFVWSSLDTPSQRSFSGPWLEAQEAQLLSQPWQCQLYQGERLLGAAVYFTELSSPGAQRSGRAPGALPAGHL

B1: 405B8H3-2 humanized antibody (antibody, V domains shown)
VH: QVQLVQSGAEVKKPGASVKVSCKASGYTFTDYEMHWVRQAPGQGLEWMGATDPETGNSAYNQKFKGRVTMTADKSTSTVYMELSSLRSEDTAVYYCISTGWNDWGQGTTVTVSS
VL: DIQMTQSPSSLSASVGDRVTITCKASQDINSYLSWFQQKPGKAPKSLIYRADRLLDGVPSRFSGSGSGTDFTLTISSLQPEDFATYYCLQYDEFPYTFGQGTKLEIK
B2: 405B8H3-6 humanized antibody (antibody, V domains shown)
VH: B1 VH
VL: B1 VL with T69Q, F71Y
B3: 405B8H3-1 humanized antibody (antibody, V domains shown)
VH: B1 VH with A72R, K74T
VL: B1 VL
B4: 405B8H3-3 humanized antibody (antibody, V domains shown)
VH: B1 VH with M48I, V68A, V79A
VL: B1 VL
B5: 405B8H3-9 humanized antibody (antibody, V domains shown)
VH: B1 VH with A72R, K74T
VL: B1 VL with Q3K, A43S, T69Q, F71Y
B6: 405B8H3-8 humanized antibody (antibody, V domains shown)
VH: B1 VH with R38K, M48I, R67K, V68A, V79A
VL: B1 VL with T69Q, F71Y
B7: 405B8H3-10 humanized antibody (antibody, V domains shown)
VH: B1 VH
VL: B1 VL with Q3K, A43S, T69Q, F71Y
B8: 405B8H3-4 humanized antibody (antibody, V domains shown)
VH: B1 VH with R38K, M48I, R67K, V68A, V79A
VL: B1 VL
B9: 405B8H3-11 humanized antibody (antibody, V domains shown)
VH: B1 VH with M48I, V68A, V79A
VL: B1 VL with Q3K, A43S, T69Q, F71Y
B10: 405B8H3-12 humanized antibody (antibody, V domains shown)
VH: B1 VH with R38K, M48I, R67K, V68A, V79A
VL: B1 VL with Q3K, A43S, T69Q, F71Y
B11: 405B8H3-5 humanized antibody (antibody, V domains shown)
VH: B1 VH with A72R, K74T
VL: B1 VL with T69Q, F71Y
B12: 405B8H3-7 humanized antibody (antibody, V domains shown)
VH: B1 VH with M48I, V68A, V79A
VL: B1 VL with T69Q, F71Y

Molecular target: T1, human LAG-3 on cells (HEK293-hLAG-3 …)
Assay: FACS, HEK293-hLAG-3, antibody 0 nM

| Binder | Mean fluorescence intensity |
| --- | --- |
| B1 | 4 |
| B2 | 4 |
| B3 | 4 |
| B4 | 4 |
| B5 | 4 |
| B6 | 4 |
| B7 | 4 |
| B8 | 4 |
| B9 | 4 |
| B10 | 4 |
| B11 | 4 |
| B12 | 4 |

Molecular target: T1, human LAG-3 on cells (HEK293-hLAG-3 …)
Assay: FACS, HEK293-hLAG-3, antibody 8 nM
Description: (§1) A. The binding of antibodies to LAG-3 expressing cells was detected by Flow cytometry (FACS), wherein the method was according to that of Example 5.

| Binder | Mean fluorescence intensity |
| --- | --- |
| B1 | 245 |
| B2 | 242 |
| B3 | 244 |
| B4 | 230 |
| B5 | 246 |
| B6 | 213 |
| B7 | 229 |
| B8 | 217 |
| B9 | 220 |
| B10 | 207 |
| B11 | 243 |
| B12 | 230 |

Molecular target: T1, human LAG-3 on cells (HEK293-hLAG-3 …)
Assay: FACS, HEK293-hLAG-3, antibody 40 nM
Description: as §1

| Binder | Mean fluorescence intensity |
| --- | --- |
| B1 | 272 |
| B2 | 254 |
| B3 | 257 |
| B4 | 253 |
| B5 | 249 |
| B6 | 242 |
| B7 | 238 |
| B8 | 251 |
| B9 | 230 |
| B10 | 229 |
| B11 | 257 |
| B12 | 252 |

Molecular target: T1, human LAG-3 on cells (HEK293-hLAG-3 …)
Assay: FACS, HEK293-hLAG-3, antibody 1.6 nM

| Binder | Mean fluorescence intensity |
| --- | --- |
| B1 | 188 |
| B2 | 179 |
| B3 | 178 |
| B4 | 173 |
| B5 | 218 |
| B6 | 134 |
| B7 | 184 |
| B8 | 151 |
| B9 | 164 |
| B10 | 142 |
| B11 | 174 |
| B12 | 163 |

Molecular target: T1, human LAG-3 on cells (HEK293-hLAG-3 …)
Assay: FACS, HEK293-hLAG-3, antibody 0.32 nM
Description: as §1

| Binder | Mean fluorescence intensity |
| --- | --- |
| B1 | 82 |
| B2 | 66 |
| B3 | 73 |
| B4 | 74 |
| B5 | 132 |
| B6 | 52 |
| B7 | 82 |
| B8 | 63 |
| B9 | 71 |
| B10 | 61 |
| B11 | 62 |
| B12 | 62 |

Molecular target: T1, human LAG-3 on cells (HEK293-hLAG-3 …)
Assay: FACS, HEK293-hLAG-3, antibody 0.013 nM
Description: as §1

| Binder | Mean fluorescence intensity |
| --- | --- |
| B1 | 11 |
| B2 | 9 |
| B3 | 11 |
| B4 | 11 |
| B5 | 14 |
| B6 | 8 |
| B7 | 11 |
| B8 | 10 |
| B9 | 11 |
| B10 | 11 |
| B11 | 9 |
| B12 | 9 |

Molecular target: T1, human LAG-3 on cells (HEK293-hLAG-3 …)
Assay: FACS, HEK293-hLAG-3, antibody 0.064 nM
Description: as §1

| Binder | Mean fluorescence intensity |
| --- | --- |
| B1 | 27 |
| B2 | 21 |
| B3 | 26 |
| B4 | 26 |
| B5 | 43 |
| B6 | 19 |
| B7 | 25 |
| B8 | 23 |
| B9 | 25 |
| B10 | 23 |
| B11 | 21 |
| B12 | 21 |

Molecular target: T2, human LAG-3 ECD (antigen protein of the …)
Assay: SPR, CM5 chip, antibody captured by anti-human Fc IgG, antigen in flow, 1:1 fit
Protocol: First, anti-human Fc IgG was immobilized on the surface of the CM5 chip to 6000-10000 RU by amino coupling method, with FC1 as the reference channel. The coupling process was as follows: a freshly prepared 1:1 mixture of 50 mM NHS and 200 mM EDC was activated for 7 minutes, then injected with 10-50 ug/ml anti-human Fc IgG diluted in 10 mM sodium acetate ph5.0 buffer. The remaining activated sites were blocked with 1M ethanolamine. Then, HBS-EP+ buffer was used to dilute the antibody to be tested to 5 ug/ml (adjustable according to the capture level) and the antibodies were captured on the chip at a flow rate of 10 ul/min to obtain a response value of about 100˜300 RU. Then the antigen protein was diluted to 100 nM (the highest concentration was tentatively 100 nM), and flew through the chip surface at a flow rate of 30 ul/min. If enough signal value was obtained, the antigen-protein was diluted by several concentration gradients, and flew through the chip surface respectively. At the end of each cycle, the chip surface was regenerated with 10 mM Glycine at pH 1.5. The kinetic rate constant needed to be subtracted from the blank control, and the data was fitted with the global fit analysis method 1:1 combination model. The dissociation equilibrium rate constant (KD) was calculated according to the following formula: KD=kd/ka.

| Binder | Kd [nM] | koff [s⁻¹] | kon [M⁻¹ s⁻¹] |
| --- | --- | --- | --- |
| B1 | 1.68 | 0.000184 | 110000 |
| B2 | 2.04 | 0.000193 | 94900 |
| B3 | 2.54 | 0.000254 | 100000 |
| B12 | 3.28 | 0.000316 | 96400 |
